Results from a protein production outcome set (Wang et al. 2014).

Assay: label from the status in PepcDB records
With “MDEADSGGIVTARNVDLSSCDRELVQYPEAIQPHGAMLTVDEQSDRVLHASANCAAFIGKPPEAVIGAPIAAVLGAGWHELLGSLHRMPLDSGPVNIARESFLGSDQGWHLFAHRCGGLIILEFEKAEPEAAGTTSNLYSEVRADLAALQATEGVQAFFDLAVERIRAFTGYDRVMAYRFAEDGSGQVIAEARRDDLEPYLGLHYPATDIPAPARRLFALSWVRHLPDVGYTPVPLLAAKSPLVTGPVDMSFASLRSVSVMYTGYLKNMGVQSTLVMPLVKEGRLWGLISAMHHAAPRHISHQMRMAAEFLAHTLSLLMSAKEDAEQFERSSARKAAAEALTRLLDSEADIGAALHAAGALDLLSALIDAGGVVVQTGDEVATRGEAPAAAPLHELTSWLRERARPVFATDRLPNLDPAAQAVASQASGVLALRPLPDQPMLIAWLRPEQIEDVQWAGDPRKPVEISDADGMQRLRPRNSFALWKESVQGRAVPWRDDEKDAATRLAAAIAEIAAARKGRIERINRALDASHSELSRYTDVASAELKEHLRGIHHLTTSLRRRQGEVLDEEGRQQVATILKLTQRMDALVDALLDRSRGGSEAASETVDLEAVVDDALAPFARRIAEDRIEVRRPMRLGTAQGHREWIGEVFTNLIGNAIRYNDKPERWIEIGVEAGSPPRYYVRDNGIGIADTDQQLVFQMFHRVDQSEQKAEGAGVGLAMTRRIVAHHGGRIWVQSRLGEGATFYFTLAPDEERHDA” the protein production was “failed”. For “MDEIDLRILKILQYNAKYSLDEIAREIRIPKSTLSYRIKKLEKDGVIKGYYAYINPASLNLDYIVITSVKAKYGKNYHVELGNKLAQIPGVWGVYFVLGDNDFIVMARYKTREEFMEKFLERVMSIPEVERTSTQVVVKIIKESPNIVIF”, the protein production was “not failed”. For “MDEIESLIGLRPTPLTWPVVIAGDFLGVWDPPPSLPGAANHEISAPTARISCMLIERRDAAARLRRALHRAPVVLLTGPRQAGKTTLSRLVGKSAPECTFDAENPVDATRLADPMLALSGLSGLITIDEAQRIPDLFPVLRVLVDRPVMPARFLILGSASPDLVGLASESLAGRVELVELSGLTVRDVGSSAADRLWLRGGLPPSFTARSNEDSAAWRDGYITTFLERDLAQLGVRIPAATMRRAWTMLAHYHGQLFSGAELARSLDVAQTTARRYLDALTDALVVRQLTPWFANIGKRQRRSPKIYIRDTGLLHRLLGIDDRLALERNPKLGASWEGFVLEQLAALLAPNPLYYWRTQQDAELDLYVELSGRPYGFEIKRTSTPSISRSMRSALVDLQLARLAIVYPGEHRFPLSDTVVAVPADQILTTGSVDELLALLK”, the protein production was “failed”. With “MDEKPAITKIISGGQTGADRAALDFAIKHHIPYGGWVPKGRLAEGGRVPETYQLQEMPTSDYSKRTEKNVLDSDGTLIISHGILKGGSALTEFFAEQYKKPCLHIDLDRISIEDAATLINSWTVSHHIQVLNIAGPRAGKDPEIYQATMDLLEVFLA” the protein production was “not failed”. In the case of “MDELFAKAPIKKVYFKLALPVVLGMITTMIYNLADTMFVAKTSDTNLVAGITIGAPLFTFLIAVSDIFGLGGSSLISRLFGERNYQLSKRVSSFCMIGGFVTGLILTAILLIFENPILHLLGAKAATYQDAADFYRIISIGAAPIVFSIIPQNLIRTEGLATQAMIATMTGTILAIILDPIFLFVFKMGAIGVGIANITGYLVTDIILIYYVLCKTEYIKLKLKYTKISGKTIKDIVAIGIPGSITNFAQSFGMALLNSSLALYGANKVAAMGITQKIYSIVILVIVGFAFGSQPLIGYNYGAKNWKRLKKILNFDILVQVVYAVVSGGLLILFARPVTALFMNQPDIVNAGSYMLIATIITTPIVGIILVYTTVFQSVGNAWAAFIMAIARQGVVYFIALETLKNIFGYHGIVWAQAVSDVITCIIGYFIYEKSLDLKDKIKN”, the protein production is reported as “failed”. In the case of “MDERRAVVLVDELHLRKGGYEAEKVRVFAVRVSETLWAFKALWGSTPFTGTTFV”, the protein production is reported as “failed”.
